Assay [1] concerns the target T1, cynomolgus BTN3A as expressed on cynomolgus PBMCs (cynomolgus).
T1 construct: whole, on cells; also called Cyno PBMC
Put plainly: flow cytometry on cynomolgus PBMCs. In general terms: Flow cytometry measures light scatter and fluorescence of single cells or particles in a stream.

The target in assay [2] is human BTN3A1 antigen (Sino Biological cat. no. 15973-H08H) (human, UniProt O00481 30-254). Put plainly: SPR, Biacore T200 multi-cycle kinetics; antibody captured on Protein A, BTN3A1 as analyte. For orientation: SPR reads the build-up and loss of mass on a sensor chip optically.
human BTN3A1 antigen (Sino Biological cat. no. 15973-H08H), sequence (O00481 30-254 limits assumed): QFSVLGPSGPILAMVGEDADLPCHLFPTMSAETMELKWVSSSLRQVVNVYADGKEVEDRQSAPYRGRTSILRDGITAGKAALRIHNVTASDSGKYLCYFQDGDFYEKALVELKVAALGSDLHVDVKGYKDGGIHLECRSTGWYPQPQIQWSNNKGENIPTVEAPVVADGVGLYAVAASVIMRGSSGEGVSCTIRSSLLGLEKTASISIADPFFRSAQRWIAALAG

B1: mAb 3, humanized form of mAb 20.1 (antibody, human IgG1, kappa, V domains shown)
VH: QVQLVQSGAEVKKPGASVKVSCKASGYTFTRYYLYWVKQRPGQGLEWIGEINPNNGGTKFNEKFKSRATMTVDKSTRTTYMELSSLRSEDTAVYYCSREDDYDGTPDAMDYWGQGTLVTVSS
VL: DIQMTQSPSSLSASVGDRVTITCHASQNINLWLSWYQQKPGKAPKLLIYRASNLHTGVPSRFSGSGSATDFTFTISSLQPEDIATYYCQQGHSYPYTFGGGTKVDIKR
notes: also called 20.1 Humanized mAb 3; humanized mAb 20.1
Turning to B1, the response in assay [1] was half-maximal at 5.74 µg/mL (EC50). In addition, in assay [2], the Kd – broadly, a measure of binding affinity in units of concentration – came to 0.319 nM.

These data come from patent US20250129165A1 (IMCHECK THERAPEUTICS, published 2025).
